Results: patent US5336667A, “Method for inhibiting the ahesion of platelet with alboaggregins: platelet agonists which bind to platelet membrane glycoprotein IB” (Temple University of the Commonwealth System of Higher …, priority 1992, dated 1994)

Legend:
[1] = molecular target: T1, alboaggregin B (AL-B), Trimeresurus albolabris venom (Trimeresurus albolabris, UniProt P81115+P81116); assay: Effect of sugars on binding of AL-B to platelets (lectin test); conditions: sugar at concentrations up to 5 mg/ml
T1 sequence (P81115 24-156): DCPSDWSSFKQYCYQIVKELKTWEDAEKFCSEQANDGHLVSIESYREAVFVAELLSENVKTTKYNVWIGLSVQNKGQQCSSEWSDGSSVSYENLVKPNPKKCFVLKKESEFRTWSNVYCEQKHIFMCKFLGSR
T1 sequence (P81116 24-146): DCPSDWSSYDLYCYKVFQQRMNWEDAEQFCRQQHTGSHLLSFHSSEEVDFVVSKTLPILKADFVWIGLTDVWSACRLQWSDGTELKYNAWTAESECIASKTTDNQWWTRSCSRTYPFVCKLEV
Procedure: Several galactose-specific lectins that agglutinate platelets have been reported in snake venoms. Their presence can be detected by inhibition of lectin-induced agglutination by galactose or other sugars. In order to determine whether the alboaggregins function as lectins, we examined the effects of eight different sugars (lactose, galactose, galactosamine, mannosamine, glucosamine, N-acetyl glucosamine, α-methyl glucoside and α-methyl mannoside) at concentrations up to 5 mg/ml.
Binding of ^125 I-bovine vWF and 125I-alboaggregins to labeled platelets was carried out according to Kirby, J. Lab. Clin. Med. 100, 963-976 (1982). Platelets were diluted and incubated at 37° C. for at least 10 min. prior to performing binding studies. Radiolabeled proteins were diluted in Tris-saline buffer containing 1 mg/ml of BSA and preincubated with buffer or a sample to be tested for inhibitory activity. The platelet suspension (1.9×10^8 platelets/ml) was added to the radiolabeled protein (26 ng/ml) and incubated at 37° C. for different periods of time. Unlabeled AL-B (1.8 μg/ml or 8.6 μg/ml) was added to duplicate suspensions after 5 min. of incubation with ^125 I-AL-B. Platelets were separated from free ligand by centrifugation for 4 min. at 12000 g. Supernatant and pellets were counted in an […] gamma counter to determine the amount of free and platelet-bound radioactivity, respectively.

[2] = molecular target: T1, alboaggregin B (AL-B), Trimeresurus albolabris venom; assay: Platelet agglutination induced by AL-B in the presence of inhibitors; assay type: cell-based
Procedure: (§1) Agglutination of platelet-rich plasma, washed platelets and fixed platelets by AL-B was performed according to the method described by Kirby, J Lab Clin. Med. 100, 963-976 (1982). Platelet agglutination was assayed at 37° C. with constant stirring at 1200 RPM in an aggregometer and the extent of light transmission change was measured after two minutes. AL-B was added to suspensions of (A) fixed washed platelets or (B) washed platelets at final concentrations of (A) 0.2, 0.4, 0.6, 0.9 and 1.7 μg/ml and (B) 0.12, 0.24 and 0.48 μg/ml, respectively. The platelet concentration was approximately 3×10^8 platelets/ml in each suspension. AL-B agglutinated both fixed platelets and washed platelets in a dose-dependent manner. Once platelets were maximally agglutinated by AL-B, addition of bovine vWF gave no further response.
(§2) Platelet agglutination induced by AL-A or AL-B was not inhibited by EDTA (10 raM) , soybean trypsin inhibitor (0.5 mg/ml) N-ethylmaleimide, (10 raM) or PGE1 (0.35 μM).

[3] = system: alboaggregin A (AL-A), Trimeresurus albolabris venom, SEQ ID NOS: 1, 2, 3 and 4; assay: Platelet agglutination induced by AL-A in the presence of inhibitors; assay type: cell-based
Procedure: as §1
All three alboaggregins agglutinated platelet rich plasma and fixed platelets directly. To induce the same amount of platelet agglutination by bovine vWF, twice as much vWF was required to obtain the same change in light transmission. […] Platelet agglutination activity of each of the alboaggregins was similar in terms of their EC50 values.
as §2

[4] = molecular target: human platelet membrane glycoprotein Ib (human) (UniProt P07359); assay: radioligand competition on platelets; competitor 125I-echicetin
[5] = molecular target: human platelet membrane glycoprotein Ib (human) (UniProt P07359); assay: Scatchard analysis of 125I-echicetin binding to fixed platelets, three experiments
[6] = molecular target: human platelet membrane glycoprotein Ib (human) (UniProt P07359)
[7] = molecular target: human platelet membrane glycoprotein Ib (human) (UniProt P07359); assay: Scatchard analysis of 125I-echicetin binding to fixed platelets
[8] = molecular target: human platelet membrane glycoprotein Ib (human) (UniProt P07359); assay: radioligand competition on fixed platelets; competitor 125I-bovine vWF
[9] = molecular target: human platelet membrane glycoprotein Ib (human) (UniProt P07359); assay: direct binding of 125I-AL-C to platelets
[10] = molecular target: human platelet membrane glycoprotein Ib (human) (UniProt P07359); assay: unlabeled AL-C competing on platelets; competitor 125I-AL-A
[11] = molecular target: human platelet membrane glycoprotein Ib (human) (UniProt P07359); assay: unlabeled AL-C competing on platelets; competitor 125I-AL-B
[12] = molecular target: human platelet membrane glycoprotein Ib (human) (UniProt P07359); assay: unlabeled AL-C competing on platelets; competitor 125I-bovine vWF
[13] = molecular target: human platelet membrane glycoprotein Ib (human) (UniProt P07359); assay: unlabeled AL-C competing on platelets; competitor 125I-AL-C
[14] = molecular target: T2, human platelet membrane glycoprotein Ib (human, UniProt P07359); assay: unlabeled bovine vWF competing on platelets; competitor 125I-AL-C
[15] = molecular target: T2, human platelet membrane glycoprotein Ib; assay: radioligand competition on fixed platelets; competitor 125I-bovine vWF (0.57 µg/ml)
[16] = molecular target: T2, human platelet membrane glycoprotein Ib; assay: unlabeled bovine vWF competing on platelets; competitor 125I-AL-B
[17] = molecular target: T2, human platelet membrane glycoprotein Ib; assay: unlabeled bovine vWF competing on platelets; competitor 125I-bovine vWF
[18] = molecular target: T2, human platelet membrane glycoprotein Ib; assay: unlabeled bovine vWF competing on platelets; competitor 125I-AL-A
[19] = molecular target: T2, human platelet membrane glycoprotein Ib; assay: radioligand competition on platelets; competitor 125I-echicetin

Molecule: N[C@H]1C(O)O[C@H](CO)[C@@H](O)[C@@H]1O (stereo partly drawn) [glucosamine]
- effect on the binding of AL-B to platelets [1]: None of these sugars showed any effect

Molecule: N[C@H]1C(O)O[C@H](CO)[C@H](O)[C@@H]1O (stereo partly drawn) [galactosamine]
- effect on the binding of AL-B to platelets [1]: None of these sugars showed any effect

Molecule: OC[C@H]1O[C@@H](O[C@H]2[C@H](O)[C@@H](O)C(O)O[C@@H]2CO)[C@H](O)[C@@H](O)[C@H]1O (stereo partly drawn) [lactose]
- effect on the binding of AL-B to platelets [1]: None of these sugars showed any effect

Molecule: CCCCC[C@H](O)/C=C/[C@H]1[C@H](O)CC(=O)[C@@H]1CCCCCCC(=O)O [PGE1]
- inhibition of platelet agglutination induced by AL-B ([2]; PGE1 0.35 μM): not inhibited
- inhibition of platelet agglutination induced by AL-A ([3]; PGE1 0.35 μM): not inhibited

Molecule: O=C(O)CN(CCN(CC(=O)O)CC(=O)O)CC(=O)O [EDTA]
- inhibition of platelet agglutination induced by AL-B ([2]; EDTA 10 raM): not inhibited
- inhibition of platelet agglutination induced by AL-A ([3]; EDTA 10 raM): not inhibited

Molecule: CO[C@H]1O[C@H](CO)[C@@H](O)[C@H](O)[C@@H]1O [α-methyl mannoside]
- effect on the binding of AL-B to platelets [1]: None of these sugars showed any effect

Molecule: N[C@@H]1C(O)O[C@H](CO)[C@@H](O)[C@@H]1O (stereo partly drawn) [mannosamine]
- effect on the binding of AL-B to platelets [1]: None of these sugars showed any effect

Molecule: CC(=O)N[C@H]1C(O)O[C@H](CO)[C@@H](O)[C@@H]1O (stereo partly drawn) [N-acetyl glucosamine]
- effect on the binding of AL-B to platelets [1]: None of these sugars showed any effect

Molecule: echicetin (ligand)
- IC50 [4]: > 0.5 µg/mL
- Kd [5]: 30 nM
- concentration for 50% inhibition of AL-B-induced agglutination of fixed platelets [6]: 1.05 µg/mL
- concentration for 50% inhibition of botrocetin/human vWF-induced agglutination of fixed platelets [6]: 1.1 µg/mL
- concentration for 50% inhibition of bovine vWF-induced agglutination of fixed platelets [6]: 0.4 µg/mL
- concentration for 50% inhibition of bovine vWF-induced agglutination of washed platelets [6]: 0.15 µg/mL
- binding sites per platelet (binding sites per platelet) [7]: 45000
- IC50 [8]: 0.2 µg/mL

Molecule: galactose
- effect on the binding of AL-B to platelets [1]: None of these sugars showed any effect

Molecule: CO[C@H]1O[C@H](CO)[C@@H](O)[C@H](O)[C@H]1O [α-methyl glucoside]
- effect on the binding of AL-B to platelets [1]: None of these sugars showed any effect

Molecule: alboaggregin C (ligand)
- percent of total radioactivity added that bound [9]: 78%
- IC50 [10]: 1.7 µg/mL
- IC50 [11]: 1 µg/mL
- IC50 [12]: 0.2 µg/mL
- IC50 [13]: 0.3 µg/mL

Molecule: CCN1C(=O)C=CC1=O [N-ethylmaleimide]
- inhibition of platelet agglutination induced by AL-B ([2]; N-ethylmaleimide 10 raM): not inhibited
- inhibition of platelet agglutination induced by AL-A ([3]; N-ethylmaleimide 10 raM): not inhibited

B1: bovine von Willebrand factor (ligand)
chain: SLSCRPPMVKVVCPADNPRAEGLECTKTCQNYDLECMSTGCVSGCLPAPGMVRHENRCVALERCPCFHQGREYAPGDRVKVDCNSCVCQDRKWNCTDHVCDASCSALGLAHYFTFDGLKYLFPGECQYVLVQDHCGSNPGTFRVLVGNEGCSVPSLKCRKRITILVEGGEIELFD
- IC50 [14]: > 10 µg/mL
- IC50 [15]: ~10 µg/mL
- IC50 [16]: > 10 µg/mL
- IC50 [17]: 2.1 µg/mL
- IC50 [18]: > 10 µg/mL
- IC50 [19]: > 20 µg/mL
